# Experimental data as given in patent publication US7767415B2, “Compositions and methods for modifying blood cell carbohydrates” (Velico Medical, Inc., priority 2001, dated 2010).
# Read-outs that look alike come from different tables or passages of the source.
# Tests used:
# [1] = test system: E. coli expressed recombinant α-N-acetylgalactosaminidase (New England BioLabs, catalog no. P0734B, proprietary strain); experiment: Apparent Km and Vmax with monosaccharide derivative (p-nitrophenol at 405 nm, Lineweaver-Burk), Table XI; format: biochemical; details: pH 7.0, 37° C.
# Protocol: Commercial Recombinant α-N-Acetylgalactosaminidase (New England Biolabs): • vii) 0.5 mM as a starting concentration of αGalNAc p-nitrophenyl monosaccharide derivative in a tube containing 0.05 M Sodium phosphate buffer pH 7.0 was sequentially diluted 2 fold by mixing it with an equal volume of buffer. […] of enzyme was added to each tube and incubated for 10 min at 37° C. The reaction was quenched by adding an equal volume of 0.2 M sodium borate buffer (pH 9.8). The amount of the liberated p-nitrophenol was determined by measuring the absorbance at 405 nm.
# [2] = test system: Recombinant chicken liver α-N-acetylgalactosaminidase; details: apparent; pH 3.65, 37° C.; Zhu et al. 1996; cited from earlier work
# [3] = test system: R. torgues (Ruminococcus torques) α-N-acetylgalactosaminidase, isolated to apparent homogeneity; details: Hoskins et al. 1997; cited from earlier work
# [4] = test system: Recombinant coffee bean (Coffea canephora) α-galactosidase; details: apparent; pH 5.5, 26° C.; Zhu et al. 1995; cited from earlier work
# [5] = test system: E. coli expressed recombinant α-N-acetylgalactosaminidase (New England BioLabs, catalog no. P0734B, proprietary strain); experiment: Preliminary Km with tetrasaccharide AMC substrate (densitometric scans of substrate/product ratio); format: biochemical; details: assay unreliable at low concentrations, Km possibly even lower than 20 μM, read-out: Km for the blood group A oligosaccharide substrates
# Text: (§1) The assay used for this determination involved densitometric scans of the substrate/product ratio using the tetrasaccharide AMC substrate (GalNAcα1-3(Fucα1-2)Galβ1-4GalNAc-AMC).
# [6] = cited from earlier work; for Specific activity with GalNAcα1-pNP: pH 3.65 (optimal pH)
# [7] = Activity with repetitive A heptasaccharide AMC substrate (HPTLC); format: biochemical
# Protocol: FIG. 5b is an HPTLC analysis of five selected Streptomycete α-N-acetylgalactosaminidase activities with the blood group A tetrasaccharide (Panel B-1) and A heptasaccharide AMC (Panel B-2) substrate. Streptomycete strains identified by numbers as in Table VII. […] Reactions were incubated 180 min at 30° C., and 2.5 μl of the reaction mixture was spotted onto HPTLC and developed in CHCl3:methanol:H2O (60:35:8) and photographed. Migration of trisaccharide (H), and tetrasaccharide (A), heptasaccharide and hexasaccharide (H-A) AMC derivatives is indicated by arrows. NE, no enzyme control; rCHl-Az, recombinant Chicken liver A-zyme; Origin, sample application position. The appearance of a disaccharide AMC is due to contaminating α-fucosidase activity.
# Aliquots of 2.5-3.0 μl were taken at different time points (0′, 15′, 30′, 60′) to follow product development. Product development was analyzed by HPTLC in chloroform-methanol-water (vol/vol/vol: 60/35/8) and visualized by UV or orcinol staining.
# [8] = Activity with blood group A tetrasaccharide AMC substrate (HPTLC); format: biochemical
# Protocol: FIG. 10 illustrates the activity of E. coli expressed α-N-acetylgalactosaminidase with the blood group A tetrasaccharide AMC substrate at different pH. Assays were performed in reactions of 10 μl containing 1 nmole of α-tetra, 0.05 μg enzyme, and the buffer Na Citrate-NaPO4 at varying pH 2.6-8.0. Reactions were incubated 40 min at 26° C., and 3 μl samples analyzed by HPTLC. Panel A: HPTLC analysis; Panel B: Substrate cleavage quantified by scanning and plotted against pH.
# Assays with Derivatized oligosaccharide substrates (AMC, OGr) were performed by the following procedure: • iii) One (AMC) or 5 (OGr) nmol substrate in reaction mixtures of a total volume of 10 μl containing 50 mM sodium citrate (pH 6.0) was incubated at 26° C. Aliquots of 2.5-3.0 μl were taken at different time points (0′, 15′, 30′, 60′) to follow product development. Product development was analyzed by HPTLC in chloroform-methanol-water (vol/vol/vol: 60/35/8) and visualized by UV or orcinol staining. […]
# as §1
# [9] = as above; format: biochemical; details: for difference of specific activity, GalNAcα1-pNP versus A tetrasaccharide substrate: pH 3.65; for Specific activity with blood group A tetrasaccharide-AMC: pH 5.5
# A2 red blood cells = experiment: Enzymatic conversion of A2 red blood cells, hemagglutination typing; format: cell-based, human; details: A2 donors; chicken enzyme 100-200 U/ml, protocols A-C (pH 7.4 or 5.5, 30-37° C., 180 min to 4 hours)
# Text: (§2) It is evident from the data in Table XII that apparent removal of A antigens is achieved, when defined by one particular anti-blood group A specific monoclonal antibody that is not approved for blood typing procedures (DAKO). A large number of such antibodies exist and, due to specificity and low affinity binding, they are inappropriate for serological typing purposes. Development of monoclonal cocktails for ABO routine typing to substitute previously used polyclonal antibody reagents was a major achievement for the blood bank industry in 1990s. […] Details of the typing assay used in this example is as follows: • Approved typing reagents used in hemagglutination assays were murine monoclonal antibodies and plant lectins obtained from Ortho Clinical Diagnostics, Raritan, N.J.; Gamma Biologicals/Immucor, Norcross, Ga. Non-approved reagents included murine monoclonal anti-A antibody from Dako and a panel of monoclonal antibodies to blood group A variants produced by H. Clausen (Clausen et al., Proc. Natl. Acad. Sci. USA 82(4): 1199-203, 1985, Clausen et al., J Biol Chem. 261(3): 1380-7, 1986, Clausen et al., Biochemistry 25(22): 7075-85, 1986, Clausen et al., J Biol Chem. 262(29): 14228-34, 1987). Typing reagents were used according to the manufacturers recommendations and other monoclonal antibodies as determined by titrations. Hemagglutination Assay (Room Temperature) 1. […]
# A1 red blood cells = experiment: Enzymatic conversion of A1 red blood cells, hemagglutination typing; format: cell-based, human; details: A1 donors; chicken enzyme 200 U/ml, 50% hematocrit, 37° C., 4 hours (protocols B, C)
# Text: as §2
# [10] = Dean and Sweeley 1979; cited from earlier work
# [11] = listed as chicken α-N-acetylgalactosaminidase
# [12] = listed as recombinant chicken α-N-acetylgalactosaminidase
molecule,measurement,setting,value
"CC(=O)N[C@H]1[C@@H](Oc2ccc([N+](=O)[O-])cc2)O[C@H](CO)[C@H](O)[C@@H]1O [GalNAcα1-pNP, p-nitrophenyl-α-D-N-acetylgalactosaminopyranoside]",Km,[1],10 to 50 µM
same,Vmax,[1],3.3 U/mg^3
same,Km,[2],827 µM
same,Vmax,[2],60.9 U/mg^3
same,Km,[3],2000 to 8000 µM
"O=[N+]([O-])c1ccc(O[C@H]2O[C@H](CO)[C@H](O)[C@H](O)[C@H]2O)cc1 [Galα1-pNP, p-nitrophenyl α-galactoside]",Km,[4],363 µM
same,Vmax,[4],46.9 U/mg^1
GalNAcα1-3(Fucα1-2)Galβ1-4GalNAc-AMC,Km,[5],~20 µM
"Recombinant Chicken Liver α-N-acetylgalactosaminidase: Chicken liver α-N-acetylgalactosaminidase, recombinant, expressed in P. pastoris; prior-art enzyme for A cell conversion (protein, UniProt Q90744 1-405, looked up) Alpha-N-acetylgalactosaminidas …: LENGLARTPPMGWLAWERFRCNVNCREDPRQCISEMLFMEMADRIAEDGWRELGYKYINIDDCWAAKQRDAEGRLVPDPERFPRGIKALADYVHARGLKLDIYGDLGRLTCGGYPGTTLDRVEQDAQTFAEWGVDMLKLDGCYSSGKEQAQGYPQMARALNSTGRPIVYSCSWPAYQGGLPPKVNYTLLGEICNLWRNYDDIQDSWDSVLSIVDWFFTNQDVLQPFAGPGHWNDPDMLIIGNFGLSYEQSRSQMALWTIMAAPLLMSTDLRTISPSAKKILQNRLMIQINQDPLGIQGRRIIKEGSHIEVFLRPLSQAASALVFFSRRTDMPFRYTTSLAKLGFPMGAAYEVQDVYSGKIISGLKTGDNFTVIINPSGVVMWYLCPKALLIQQQAPGGPSRLPLL",specific activity using p-nitrophenyl αGalNAc as substrate,"[6]; literature values, pH not stated",51-56 U/mg
same,Specific activity with GalNAcα1-pNP,[6],50 U/mg^3
same,Specific activity with GalNAcα1-pNP,[6]; [11],approximately 50 U/mg
same,Specific activity with GalNAcα1-pNP,[6]; [12],approximately 50 U/mg
same,Specific activity with repetitive A heptasaccharide-AMC,[7]; pH 3.65,0.5 U/mg
same,Specific activity with repetitive A heptasaccharide-AMC,[7]; pH 5.5,0.4 U/mg
same,specific activity with repetitive A type 3 AMC derivative (structure 6),[7]; pH not stated,approximately 0.3 U/mg
same,pH optimum with the blood group A tetrasaccharide AMC substrate,[8]; not shown,3.5-4.5
same,Specific activity with blood group A tetrasaccharide-AMC,[8]; pH 3.65,0.5 U/mg
same,Specific activity with blood group A tetrasaccharide-AMC,"[8]; pH 3.65, listed as chicken α-N-acetylgalactosaminidase",0.3 U/mg
same,Specific activity with blood group A tetrasaccharide-AMC,"[8]; pH 3.65, listed as recombinant chicken α-N-acetylgalactosaminidase",0.3 U/mg
same,Specific activity with blood group A tetrasaccharide-AMC,[8]; pH 5.5,0.4 U/mg
same,specific activity with A type 2 tetrasaccharide AMC derivative (structure 3),[8]; pH not stated,approximately 0.3 U/mg
same,"difference of specific activity, GalNAcα1-pNP versus A tetrasaccharide substrate",[9]; [11],over 100 fold
same,"difference of specific activity, GalNAcα1-pNP versus A tetrasaccharide substrate",[9]; [12],166 fold
same,Specific activity with blood group A tetrasaccharide-AMC,[9]; [11],0.2 U/mg
same,Specific activity with blood group A tetrasaccharide-AMC,[9]; [12],0.2 U/mg
same,"Agglutination, Dolichos biflorus, post enzyme treatment",A2 red blood cells,0
same,"Agglutination, Dolichos biflorus, post enzyme treatment",A1 red blood cells,0
"human α-N-acetylgalactosaminidase: human α-N-acetylgalactosaminidase (alpha-galactosidase B), isolated, cloned and expressed (protein, UniProt P17050 18-411, looked up) Alpha-N-acetylgalactosaminidas …: LDNGLLQTPPMGWLAWERFRCNINCDEDPKNCISEQLFMEMADRMAQDGWRDMGYTYLNIDDCWIGGRDASGRLMPDPKRFPHGIPFLADYVHSLGLKLGIYADMGNFTCMGYPGTTLDKVVQDAQTFAEWKVDMLKLDGCFSTPEERAQGYPKMAAALNATGRPIAFSCSWPAYEGGLPPRVNYSLLADICNLWRNYDDIQDSWWSVLSILNWFVEHQDILQPVAGPGHWNDPDMLLIGNFGLSLEQSRAQMALWTVLAAPLLMSTDLRTISAQNMDILQNPLMIKINQDPLGIQGRRIHKEKSLIEVYMRPLSNKASALVFFSCRTDMPYRYHSSLGQLNFTGSVIYEAQDVYSGDIISGLRDETNFTVIINPSGVVMWYLYPIKNLEMSQQ",pH optimum,[10],3.5
